Assay results from the supplement of paper PMC9170038.

Tested on: K4 kissing-loop RNA reporter
Assay: apparent KD of K4 kissing-loop reporter; higher = weaker reporter binding
Details: Eterna round: R107; input ligand: arginine 13.2 mM
Procedure: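 RNA-MaP round R107: designed RNA switches with theophylline, tryptophan, arginine or FMN aptamers are transcribed on-chip within common flanks. They are titrated with a labelled K4 kissing-loop RNA reporter in RNA-MaP buffer (100 mM Tris pH 7.5, 80 mM KCl, 4 mM MgCl2), without ligand or with the indicated ligand. Median apparent KD per design.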
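Also: bound reporter read as fluorescence of individual clusters on recovered sequencing chips by microscopy, with normalized cluster intensities fitted with a binding model.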

| Sequence | apparent KD of K4 kissing-loop reporter [nM] |
| --- | --- |
| CAUGGGCCAGUGAUGUUGGCGCGCACGGGACGAGGACCGGUACGGCCGCCACUCGCUUUUGCUCUUAUCGGGAUAAGAAAACCGA [Enveerorle] | 134 |
| UUUUUUAAUGGAAGGAGCGCGUGGGCGCAGUGAUGUUGCGCCCGACAUCACUUCAACUUAACGCAGGUAGGUCGCCAUUAUUUUU [Arginine B (Excl) V6] | 128 |
| AGCUCAGAGUGACUCGAUAAGAGUCACAAACGAGGACCGGUACGGCCGCCACUCGAAAUAACGAGAGUGAUGUUCUCGCUGAGCA [#SwitchBubble 1 #StaticStem #K4Late] | 517 |
| UAUCGAGUGAUGUUCGAUGUAGUUCAUUCAGAGGAUAUAGGAUGGGCUAGAAGGCUGAAAAGUGCUUCGAGUGAUGUUCGAAGAU [Exclusion FMN A GF 6] | 40.9 |
| AUAGGAGUGAUGUUCCUUAGUUUCUCCGAUACCAGUAUGGAAACAUACCCUUGGCAGCGGGAGACCGCUGAUUAGGAAACUAGUC [Theophylline A K4 8] | 242 |
| GCUAUGGUAGGAAGGAGCGCUUAUUCAUUAAUAAGAGUGAUGUUCGAUAAUGAAUAUUUAUAGCAGGUAGGUCGCCUACUAUAGC [Arginine B K4 2] | 223 |
| GGUAGCAUGGCGGCCGCCACUCGGACGACAUAGCACAUGUCGACCAGUGAUGUUGGUUCAAACACGAGGACCGGGCCAUGCUACC | 715 |
| AGGGAUGUUAAAGGAUAUAGAAAGUGAUGUUAGAAAGUGAGUGAUGUUGAUGUUAGUGAUGUUAUGUUAGAAGGUUAACAAAACG [a] | 149 |
| ACACUUUACGUAGGAUAUGCGACGAGUGAUGUUCGUCAGGCGGCUCUAGAUUAAACAAGCCGCCUAGCAGAAGGACGGGCAGUGU [Teaanso] | 145 |
| GCUAAGGAGUGAUGUUCCAAGUGAUGUUAACGAGGACCGGUACGGCCGCCACUCGAUACGGCCGGACCGUAAGAUAAACUACAGC [Same State - Tryptophan A (Freestyle 6)] | 182 |
| AGACGCCAGUCGGCCGCCACUCACAGCAGUGAUGUUGCUGAGAAUCUAGAAGAGUGAUGUUCUUAGAGGACCGGGACUCCAGUCG [Same State Tryptophan B GF 7] | 363 |
| GUUACUUCAGAAGGAUAUUAGUAAACAACACGGUAGUGAUGUUACCGUUAUCAAGCCCGGCUUCACUAAGAAGGUCUCCACCGCG [theeternabot_sameState_KL_FMN_B_23] | 67.9 |
| GUUUGGCGGGCGGCCGCCACUCGGACGAGUCGCAGUGAUGUUGUGGUUUGCCAGUCGUCUUCAUCGAGGACCGGGUUUGUCGGGC [Exclusion Tryptophan B GF 19] | 380 |
| CGAAGAAAGGUAUGUGGGAUCUGCGCGUAACGAGGACCGGUACGGCCGCCACUCGACGUCGCAUACGGCCCAGUGAUGUUGGGUG [theeternabot_sameState_KL_Trp_A_14] | 55.9 |
| AAAUAAAACUAUGAUACCAGUCAUCACAGAGUGAUGUUUUGUGGCAUUUUAAACUUGGCAGACCCUUGGCAGCAUGAUAUAGGAG [theeternabot_sameState_KL_Theo_B_8] | 207 |
| UUUAUAUAGUCGGCCGCCACUGAUUUUUAUAUAUGUUUAUGUUUAUACGAGUGAUGUUCGUUAUUCAGGACCGGGACUUUUGUUA [JR_SSTryptoB_Sub016] | 133 |

| Sequence | apparent KD of K4 kissing-loop reporter [nM] |
| --- | --- |
| UGAUACCAGGCGGCCGCCACUCCCGCAGGUCAAAGACCUGCGAAGCUGGUUCUUCAGUGAUGUUGGAGGACCGGGCCUGGUAUCU [FiskerMod 25 - Jieux - Exclusion - Tryptophan B] | 211 |
| GGAUUGCGUUCGGCCGCCACUAGACUACAUUCCACGCCCGACCCGUUUUUAAGUGAUGUUUAAACUAGGACCGGGAACCGAUUUC [theeternabot_exclusion_KL_Trp_B_33] | 291 |
| AAUAAGGUCGCCGAUACCAGCGCAGGCAGAGCAAAGCUCUGCCAAGUAGUGAUGUUACUGCGCCCUUGGCAGCGGUGGCACGACC [Omei KL Theo B SS C v3] | 157 |
| UUGUGCAGCAAUCGAGUGAUGUUCGACGAUACCAGCCUCGAUAGAGGCCCUUGGCAGCGUAUCAUCACAUGCCAAGAGCUGCACU [#SwitchBubble 5] | 362 |
| AUGGUAUUGCGAGGAUAUCCUUCAAAUGUGACACUAACGGCAGUGAUGUUGCCGGCGUCUUUUUGAGGAGAAGGCGCGGUGUUAU [Exclusion FMN B GF 24] | 112 |
| CCGAAGAACCAGUGAUGUUGGUUGACUAGACAGGAUAUGAGCAACAUCAGAAGGGUCUGGCUUCGGGAGAGAGUCGCGCUGACCU [Anditebier] | 350 |
| GCGAUCUGCAUCGAUACCAGCCCAGUGAUGUUGGGCUGCUCUCCAUGGGUGCCAGACACGGGCCCUUGGCAGCGAGGUAGAGCCC [Maonzaa] | 118 |
| GAGCGGUGGAGGUUACCGCUAUUCUGAGAAGGAGCGCAGAUGACUGCAGGUAGGUCGCUUAGAGCUUGCAGUGAUGUUGCAAGUU [Edrirama] | 177 |
| CGAGUGAUGUUCGAAGAGUUGUUGAGCGAUACCAGCCAGGAAACUGGCCCUUGGCAGCGUAAUAAAUAAAUAAAUAAAUGAUCAC [whbob_Ex_Theo_A_th61] | 464 |
| GACUCAUGUAGAAGGAGCGUCAGAAGCUACAGACAUGAGUGAUGUUCAUGUUAGUUGAUCUGACAGGUAGGUCGCUACAGCAGGA [KL-SSArg B14 #analogue] | 121 |
| UUACGCGGCAUAGAUACCAGCAAUGCAGGAUAGGUCAAGAGUGAUGUUCUGAUACUUGGGUGCCCUUGGCAGCUAGACGAUAACA [theeternabot_sameState_KL_Theo_B_46] | 449 |
| AAUAAACAGUCGGCCGCCACUUCAAUAGACUUAUUAUUGAAUGGUGUAGUUCUUCAGUGAUGUUGAAGGACCGGGACUUUCGCGC [Isesator] | 134 |
| CAGCAGAGUGAUGUUCUGCUUACUGCGGAUACCAGCUUUGCCAGAGGCCCUUGGCAGCCGCACGGCUCAGUGAUGUUGGGUCACG [Same State Theophylline A GF 13] | 293 |
| UGAUAGGACAGAAGGAGCGGAAGCUAGUCAAAGACUAGCAAACGUUAAACAGGAGUGAUGUUCCAGGUAGGUCGCUGUCCUAUCU [ArgBX 23 #SwitchBubble #StaticStem] | 115 |
| UAUUGUACAGGGAAAUUGAUAAUAGACUUACGAGGACCGGUACGGCCGCCACUCGAUAGUCGAGUGAUGUUCGAAUGCUAUUGAU [Attempt 1] | 210 |
| UGAUACCAGACGGCCGCCACUUCUGCAAGUCAAAGACUUGCCAAGGGAAUCGUCCAGUGAUGUUGGAGGACCGGGUCUGGUAUCU [FiskerMod 3 - Jieux - Exclusion - Tryptophan B] | 445 |

Same assay, conditions: Eterna round: R107; input ligand: none

| Sequence | apparent KD of K4 kissing-loop reporter [nM] |
| --- | --- |
| UGAUUGCCAGUGAUGUUGGCAUAUACUGAAGGAGCGCGUGAAAACGCAGGUAGGUCGCAGUUCCUUGCCAAUUGAUCGAAAGAUC [KL-XArg-A1] | 137 |
| AAGAGGUAGGCGGCCGCCACUAGUUGUGAACACAUACGAGCCAGUGAUGUUGGUAUGGUGGGCGGUAGGACCGGGCCUACCUGAA [Exclusion - Tryptophan B (Freestyle 18)] | 496 |
| GUGCGCGCGGCGGCCGCCACUCGCAUGAGAGUGAUGUUCUUGCCCGGGCCGCAAGGCCCGGGUGUGAGGACCGGGCCGGGCUGCG [#2 Same State - Tryptophan B Attempt #26 (HarryS)] | 180 |
| CCGACUGCAGGAAGGAGCGGCGGUUGGAGUGAUGUUCCGGGUAGUGAUGUUACCAAGAUCCGCCAGGUAGGUCGCCUGUUGCUCG [Same State Arginine B GF11] | 129 |
| AAUGUACAAGUGAUGUUUGUACUUUCCGAAGGAGCGUCUAAUAAGACAGGUAGGUCGCGGAUUAUCAUAAUUAUCAGGUUUUCAA [JR_SSArginiA_Sub015] | 92.4 |
| UGACUGGACUGAAGGAGCGUUGAAGGAGCGUAGUGAGUGAUGUUCACUACAGGUAGGUCGCAGCAGGUAGGUCGCAGUCUAGUCU [ArgBS 25 #DoubleAptamer #SwitchBubble] | 101 |
| UGAUACCAGACGGCCGCCACUUCCGUAAGUCAAAGACUUGCCAAGGGAAUCGUCCAGUGAUGUUGGAGGACCGGGUCUGGUAUCU [FiskerMod 5 - Jieux - Exclusion - Tryptophan B] | 725 |
| AAUAUAUAGUGAAGGAGCGCGAUAAGCAGUGAUGUUGCUUUGUUAUGAUUGUCUAUUUUUACGCAGGUAGGUCGCACUAUAUAUA [JR_ExcArginiB_Sub020] | 126 |
| UAGAGCAUCGCAGGAUAUCCUGCUUAACGUUGGAUUCCAGUGAUGUUGGAAAGCCGGCCUAGGGUAGGAGAAGGGCGGAUUUGAA [Edvean] | 215 |
| AGGAGCUGUCGACAAAAGUCGACAUAAACCAAGGAUAUGACGAAAGUCAGAAGGUGGUCAUAAGACCAGUGAUGUUGGUAGCUCC [FmnA 10 #SwitchBubble #K4Late] | 466 |
| CAUGGGCCAGUGAUGUUGGCGCGCACGGGACGAGGACCGGUACGGCCGCCACUCGCUUUUGCUCUUAUCGGGAUAAGAAAACCGA [Enveerorle] | 567 |
| UUUUUUAAUGGAAGGAGCGCGUGGGCGCAGUGAUGUUGCGCCCGACAUCACUUCAACUUAACGCAGGUAGGUCGCCAUUAUUUUU [Arginine B (Excl) V6] | 122 |
| AGCUCAGAGUGACUCGAUAAGAGUCACAAACGAGGACCGGUACGGCCGCCACUCGAAAUAACGAGAGUGAUGUUCUCGCUGAGCA [#SwitchBubble 1 #StaticStem #K4Late] | 1000 |
| UAUCGAGUGAUGUUCGAUGUAGUUCAUUCAGAGGAUAUAGGAUGGGCUAGAAGGCUGAAAAGUGCUUCGAGUGAUGUUCGAAGAU [Exclusion FMN A GF 6] | 53.7 |
| AUAGGAGUGAUGUUCCUUAGUUUCUCCGAUACCAGUAUGGAAACAUACCCUUGGCAGCGGGAGACCGCUGAUUAGGAAACUAGUC [Theophylline A K4 8] | 261 |
| GCUAUGGUAGGAAGGAGCGCUUAUUCAUUAAUAAGAGUGAUGUUCGAUAAUGAAUAUUUAUAGCAGGUAGGUCGCCUACUAUAGC [Arginine B K4 2] | 230 |
| GGUAGCAUGGCGGCCGCCACUCGGACGACAUAGCACAUGUCGACCAGUGAUGUUGGUUCAAACACGAGGACCGGGCCAUGCUACC | 798 |
| AGGGAUGUUAAAGGAUAUAGAAAGUGAUGUUAGAAAGUGAGUGAUGUUGAUGUUAGUGAUGUUAUGUUAGAAGGUUAACAAAACG [a] | 211 |
| ACACUUUACGUAGGAUAUGCGACGAGUGAUGUUCGUCAGGCGGCUCUAGAUUAAACAAGCCGCCUAGCAGAAGGACGGGCAGUGU [Teaanso] | 164 |
| GCUAAGGAGUGAUGUUCCAAGUGAUGUUAACGAGGACCGGUACGGCCGCCACUCGAUACGGCCGGACCGUAAGAUAAACUACAGC [Same State - Tryptophan A (Freestyle 6)] | 213 |
